Assay results published in patent publication US20220340678A1 (MURAL ONCOLOGY, published 2022).

T1: Recombinant mouse uPAR-Fc (R&D Systems, Cat. No. 531-PA-100) (mouse, UniProt P35456 24-297, limits assumed)
T1 construct: not shown: Fc of the bought fusion (captured with the human antibody capture kit); not described
T1 sequence (looked up): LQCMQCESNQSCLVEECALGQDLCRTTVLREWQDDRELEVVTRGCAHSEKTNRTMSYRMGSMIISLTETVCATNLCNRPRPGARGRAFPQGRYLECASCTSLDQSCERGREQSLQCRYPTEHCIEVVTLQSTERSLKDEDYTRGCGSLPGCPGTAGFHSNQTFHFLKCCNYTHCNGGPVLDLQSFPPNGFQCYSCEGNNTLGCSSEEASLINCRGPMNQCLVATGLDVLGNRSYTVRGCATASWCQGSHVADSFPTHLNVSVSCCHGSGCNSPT

T2: IL-12 p40 C177F variant (human, UniProt P29460 23-328)
T2 sequence: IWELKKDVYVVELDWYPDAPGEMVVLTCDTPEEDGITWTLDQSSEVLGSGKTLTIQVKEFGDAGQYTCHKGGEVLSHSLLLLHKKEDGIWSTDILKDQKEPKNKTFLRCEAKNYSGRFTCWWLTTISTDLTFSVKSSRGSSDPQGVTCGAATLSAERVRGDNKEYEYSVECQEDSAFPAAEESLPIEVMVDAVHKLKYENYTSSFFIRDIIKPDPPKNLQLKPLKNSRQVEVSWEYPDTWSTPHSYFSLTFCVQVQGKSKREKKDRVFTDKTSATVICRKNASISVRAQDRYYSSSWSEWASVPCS

T3: IL-12 p40 C177S variant (human, UniProt P29460 23-328)
T3 sequence: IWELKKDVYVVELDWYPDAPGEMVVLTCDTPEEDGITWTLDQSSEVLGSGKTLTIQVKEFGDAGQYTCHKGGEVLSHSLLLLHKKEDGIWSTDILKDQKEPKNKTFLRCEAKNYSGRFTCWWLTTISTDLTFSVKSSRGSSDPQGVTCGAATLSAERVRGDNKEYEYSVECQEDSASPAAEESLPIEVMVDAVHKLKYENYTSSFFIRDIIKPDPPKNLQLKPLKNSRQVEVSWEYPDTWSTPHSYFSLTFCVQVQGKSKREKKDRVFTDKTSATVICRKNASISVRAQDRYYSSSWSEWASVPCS


How the values were obtained:
[1] = target: T4, histidine-tagged human uPAR (Sino#10925-H08H) (human, UniProt Q03405 23-303); assay: BLI (Octet), antibody on anti-human Fc sensor, uPAR from 50 nM;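 further: antibodies captured at 10 µg/mL on anti-human Fc biosensors, with uPAR as analyte in a twofold dilution series from 50 nM downward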
T4 construct: also called uPAR-His

[2] = target: T1, Recombinant mouse uPAR-Fc (R&D Systems, …); assay: SPR (Biacore), mouse uPAR-Fc captured on anti-human antibody chip
[3] = target: IL-2/IL-15 receptor on primary mouse splenocytes (mouse); assay: cell-based or functional assay
IL-12 p40 C177F variant = target: T2, IL-12 p40 C177F variant; assay: BLI (Octet), p35 C74 variant against p40 C177F
IL-12 p40 C177S variant = target: T3, IL-12 p40 C177S variant; assay: BLI (Octet), p35 C74 variant against p40 C177S

Kd [1] [nM] | koff [1] [s⁻¹] | kon [1] [M⁻¹ s⁻¹] | Binder | further results
1.3 | 0.000893 | 686000 | M1-H3/L4 (antibody, V domains shown, also called humanized M1) VH: EVQLQQSGAEVKKPGATVKLSCTASGFNIKDEYINWVKQRPGQGLEWIGWIDPENGDTEYASKFQGRATITADTSTDTAYLELSSLRSEDTAVYYCTGGNYVGWFPYWGQGTLVTVSS VL: QIVLTQSPATLSASPGERVTMSCSASSSVSYMHWYQQKPGTSPRRWLYDTSKLASGVPARFSGSGSGTDYTLTISSLEPEDFATYYCQQWSSNPPYTFGQGTKLEIKT | 
1.64 | 0.00111 | 677000 | M1-H3/L1 (antibody, V domains shown, also called humanized M1) VH: EVQLQQSGAEVKKPGATVKLSCTASGFNIKDEYINWVKQRPGQGLEWIGWIDPENGDTEYASKFQGRATITADTSTDTAYLELSSLRSEDTAVYYCTGGNYVGWFPYWGQGTLVTVSS VL: EIVLTQSPATLSLSPGERATLSCSASSSVSYMHWYQQKPGTSPRRWIYDTSKLASGVPARFSGSGSGTDFTLTISSLEPEDFAVYYCQQWSSNPPYTFGQGTKLEIKT | 
1.48 | 0.000986 | 665000 | M1-H1/L4 (antibody, V domains shown, also called humanized M1) VH: EVQLVQSGAEVKKPGATVKISCTASGFNIKDEYINWVKQRPGKGLEWIGWIDPENGDTEYASKFQGRVTITADTSTDTAYLELSSLRSEDTAVYYCTGGNYVGWFPYWGQGTLVTVSS VL: QIVLTQSPATLSASPGERVTMSCSASSSVSYMHWYQQKPGTSPRRWLYDTSKLASGVPARFSGSGSGTDYTLTISSLEPEDFATYYCQQWSSNPPYTFGQGTKLEIKT | 
 |  |  | Mouse uPA-ATF:Mouse cpIL-2:IL-2Ra:His6 (other) GSVLGAPDESNCGCQNGGVCVSYKYFSRIRRCSCPRKFQGEHCEIDASKTCYHGNGDSYRGKANTDTKGRPCLAWNAPAVLQKPYNAHRPDAISLGLGKHNYCRNPDNQKRPWCYVQIGLRQFVQECMVHDCGGSGGSKSFQLEDAENFISNIRVTVVKLKGSDNTFECQFDDESATVVDFLRRWIAFCQSIISTSPQGGSSSTQQQQQHLEQLLMDLQELLSRMENYRNLKLPRMLTFKFYLPKQATELKDLQCLEDELGPLRHVLDLTQGSGGGSELCLYDPPEVPNATFKALSYKNGTILNCECKRGFRRLKELVYMRCLGNSWSSNCQCTSNSHDKSRKQVTAQLEHQKEQQTTTDMQKPTQSMHQENLTGHCREPPPWKHEDSKRIYHFVEGQSVHYECIPGYKALQRGPAISICKMKCGKTGWTQPQLTCVDHHHHHH | Kd [2]: 0.14 nM; koff [2]: 0.0002 s⁻¹; kon [2]: 1.4e+06 M⁻¹ s⁻¹; pSTAT5 EC50, mouse NK cells [3]: 35 nM; pSTAT5 EC50, mouse Tregs [3]: 22 nM; pSTAT5 EC50, mouse memory CD8 T cells [3]: 38 nM
1.11 | 0.000701 | 629000 | M1-Chimeric (antibody, V domains shown) VH: EVQLQQSGAELVRPGASVKLSCTASGFNIKDEYINWVKQRPEQGLEWIGWIDPENGDTEYASKFQGKATITADTSSNTAYLQLSSLTSEDTAVYYCTGGNYVGWFPYWGQGTLVTVSA VL: QIVLTQSPAIMSASPGEKVTMTCSASSSVSYMHWYQQKSGTSPKRWLYDTSKLASGVPARFSGSGSGTSYSLTISSMEAEDAATYYCQQWSSNPPYTFGGGTKLEIK | 
 |  |  | IL-12 p35 C74D variant (other) RNLPVATPDPGMFPCLHHSQNLLRAVSNMLQKARQTLEFYPCTSEEIDHEDITKDKTSTVEACLPLELTKNESDLNSRETSFITNGSCLASRKTSFMMALCLSSIYEDLKMYQVEFKTMNAKLLMDPKRQIFLDQNMLAVIDELMQALNFNSETVPQKSSLEEPDFYKTKIKLCILLHAFRIRAVTIDRVMSYLNAS | Kd (IL-12 p40 C177F variant): 60.2 nM; koff (IL-12 p40 C177F variant): 0.000719 s⁻¹; kon (IL-12 p40 C177F variant): 11900 M⁻¹ s⁻¹; Kd (IL-12 p40 C177S variant): 57.1 nM; koff (IL-12 p40 C177S variant): 0.001 s⁻¹; kon (IL-12 p40 C177S variant): 17600 M⁻¹ s⁻¹
 |  |  | IL-12 p35 C74K variant (other) RNLPVATPDPGMFPCLHHSQNLLRAVSNMLQKARQTLEFYPCTSEEIDHEDITKDKTSTVEACLPLELTKNESKLNSRETSFITNGSCLASRKTSFMMALCLSSIYEDLKMYQVEFKTMNAKLLMDPKRQIFLDQNMLAVIDELMQALNFNSETVPQKSSLEEPDFYKTKIKLCILLHAFRIRAVTIDRVMSYLNAS | Kd (IL-12 p40 C177F variant): 18.4 nM; koff (IL-12 p40 C177F variant): 0.000295 s⁻¹; kon (IL-12 p40 C177F variant): 16000 M⁻¹ s⁻¹; Kd (IL-12 p40 C177S variant): 19.6 nM; koff (IL-12 p40 C177S variant): 0.000508 s⁻¹; kon (IL-12 p40 C177S variant): 25900 M⁻¹ s⁻¹
 |  |  | Mouse cpIL-2:IL-2Ra (other) SSKSFQLEDAENFISNIRVTVVKLKGSDNTFECQFDDESATVVDFLRRWIAFCQSIISTSPQGGSSSTQQQQQHLEQLLMDLQELLSRMENYRNLKLPRMLTFKFYLPKQATELKDLQCLEDELGPLRHVLDLTQGSGGGSELCLYDPPEVPNATFKALSYKNGTILNCECKRGFRRLKELVYMRCLGNSWSSNCQCTSNSHDKSRKQVTAQLEHQKEQQTTTDMQKPTQSMHQENLTGHCREPPPWKHEDSKRIYHFVEGQSVHYECIPGYKALQRGPAISICKMKCGKTGWTQPQLTCVD | pSTAT5 EC50, mouse NK cells [3]: 19 nM; pSTAT5 EC50, mouse Tregs [3]: 22 nM; pSTAT5 EC50, mouse memory CD8 T cells [3]: 23 nM
2.35 | 0.000477 | 203000 | M8-H3/L2B10 (antibody, also called humanized M8) heavy: not shown light: DIQMTQSPSSLSASVGDTVTITCRTSENIYSNLAWYQQKPGKSPQLLVYAATNLADGVPSRFSGSGSGTDYTLTISSLQPEDFGTYYCQHFWGTPWTFGGGTKVEIKTVAAPSVFIFPPSDEQLKSGTASVVCLLNNFYPREAKVQWKVDNALQSGNSQESVTEQDSKDSTYSLSSTLTLSKADYEKHKVYACEVTHQGLSSPVTKSFNRGEC | 
1.65 | 0.000351 | 213000 | M8-H3/L2B5 (antibody, also called humanized M8) heavy: not shown light: DIQMTQSPSSLSASVGDRVTITCRTSENIYSNLAWYQQKPGKSPQLLVYAATNLADGVPSRFSGSGSGTDYTLTISSLQPEDFGTYYCQHFWGTPWTFGGGTKVEIKTVAAPSVFIFPPSDEQLKSGTASVVCLLNNFYPREAKVQWKVDNALQSGNSQESVTEQDSKDSTYSLSSTLTLSKADYEKHKVYACEVTHQGLSSPVTKSFNRGEC | 
1.74 | 0.000427 | 246000 | M8-H3/L2B2 (antibody, V domains shown, also called humanized M8) VH: QIQLVQSGSELKKPGASVKISCKASGTTFTDYGMNWVKQSPGKGLKWMGWINTNTGEPTYAEDFKGRFVFSLDTSVSTAYLQISSLKAEDTATYFCAHYSFDYWGQGTLLTVSS VL: DIQMTQSPSSLSASVGDTVTITCRTSENIYSNLAWYQQKPGKSPQLLVYAATNLADGVPSRFSGSGSGTQYTLKISSLQPEDFATYYCQHFWGTPWTFGGGTKVEIKT | 
15.1 | 0.00606 | 402000 | M43-Chimeric (antibody, V domains shown) VH: QVQLQQSGAELARPGASVNLSCKASGYTFTSYGISWVKQRTGQGLEWIGEIYPRSGNTYYNEKFKGKATLTADKSSRTAYMELRSLTSEDSAVYFCAGKDYGSTYADYWGQGTTLTVSS VL: QIVLTQSPAIMSASPGEKVTMTCSASSSVSSRYLHWYQQKSGASPKLWIYGTSNLASGVPARFSGSGSGTSYSLTINSVEAEDAATYYCQQYHSDPLTFGAGTKLELK | 
15.9 | 0.00658 | 415000 | M43-H1bm5/L4 (antibody, V domains shown, also called humanized M43) VH: QVQLVQSGAEVAKPGASVNLNCKASGYTFTSYGISWVRQRTGQGLEWIGEIYPRSGNTYYNEKFKGKVTLTTDKSTRTAYMELRSLTSEDTAVYYCAGKDYGSTYADYWGQGTTLTVSS VL: QIVLTQSPATLSASPGERVTMTCSASSSVSSRYLHWYQQKSGASPRLWIYGTSNLASGVPARFSGSGPGTSYTLTISSVEPEDAATYYCQQYHSDPLTFGQGTKLELKT | 
14.7 | 0.00666 | 454000 | M43-H4bm5/L4 (antibody, V domains shown, also called humanized M43) VH: QVQLQQSGAEVAKPGASVNLNCKASGYTFTSYGISWVRQRTGQGLEWIGEIYPRSGNTYYNEKFKGKATLTADKSTRTAYMELRSLTSEDTAVYFCAGKDYGSTYADYWGQGTTLTVSS VL: QIVLTQSPATLSASPGERVTMTCSASSSVSSRYLHWYQQKSGASPRLWIYGTSNLASGVPARFSGSGPGTSYTLTISSVEPEDAATYYCQQYHSDPLTFGQGTKLELKT | 
1.79 | 0.00049 | 273000 | M8-Chimeric (antibody, V domains shown) VH: QIQLVQSGPELKKPGETVKISCKASGNTFTDYGMNWVKQSPGKGLKWMGWINTNTGEPTYADDFKGRFAFSLETSASTAYLQINNLKNEDMATYFCAHYSFDYWGQGTTLTVSS VL: DIQMTQSPASLSVSVGQTVTITCRTSENIYSNLAWYQQKPGKSPQLLVYAATNLADGVPSRFSGSGSGTQYSLKINSLQSEDFGSYYCQHFWGTPWTFGGGTKLEIK | 
